± gives the standard error. For some assays here: Variants at the floor of the assay were thinned out.
B1: glmS ribozyme (parent)
chain: AUAAAAGCGCCAGAACUACAGAAAUGUAGUUGACGAGGAGGAGGUUUAUCGAAUUUUCGGCGGAUGCCUCCAAA

Assays:
Conditions in all cases: with glucosamine-6-phosphate
glucosamine-6-phosphate [1] = variants of: B1; experiment: kcat; higher = faster cleavage; RNA array
Method in brief: (§1)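 A hybridised Cy3 probe tracked barcoded ribozyme variants, transcribed in situ by E. coli RNA polymerase on sequenced MiSeq chips, at 37 °C. The variants received 40 μM to 10 mM glucosamine-6-phosphate in HEPES/KCl/Mg(OAc)2 buffer. kobs came from decay fits and kcat and KM from weighted Michaelis–Menten fits.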

glucosamine-6-phosphate [2] = variants of: B1; experiment: KM; higher = weaker cofactor use; RNA array
Method in brief: as §1

glucosamine-6-phosphate [3] = variants of: B1; experiment: self-cleavage kobs at 40 uM GlcN6P; higher = faster cleavage; RNA array
Method in brief: as §1

glucosamine-6-phosphate [4] = variants of: B1; experiment: self-cleavage kobs at 160 uM GlcN6P; higher = faster cleavage; RNA array
Method in brief: as §1

glucosamine-6-phosphate [5] = variants of: B1; experiment: self-cleavage kobs at 640 uM GlcN6P; higher = faster cleavage; RNA array
Method in brief: as §1

glucosamine-6-phosphate [6] = variants of: B1; experiment: self-cleavage kobs at 2500 uM GlcN6P; higher = faster cleavage; RNA array
Method in brief: as §1

glucosamine-6-phosphate [7] = variants of: B1; experiment: self-cleavage kobs at 10000 uM GlcN6P; higher = faster cleavage; RNA array
Method in brief: as §1

| Variant | kcat (glucosamine-6-phosphate [1]) [s⁻¹] | KM (glucosamine-6-phosphate [2]) [µM] | self-cleavage kobs at 40 uM GlcN6P (glucosamine-6-phosphate [3]) [s⁻¹] | self-cleavage kobs at 160 uM GlcN6P (glucosamine-6-phosphate [4]) [s⁻¹] | self-cleavage kobs at 640 uM GlcN6P (glucosamine-6-phosphate [5]) [s⁻¹] | self-cleavage kobs at 2500 uM GlcN6P (glucosamine-6-phosphate [6]) [s⁻¹] | self-cleavage kobs at 10000 uM GlcN6P (glucosamine-6-phosphate [7]) [s⁻¹] |
| --- | --- | --- | --- | --- | --- | --- | --- |
| U45G U56G | 0.00528 ± 0.00075 | 2490 ± 520 | 8.78e-05 ± 1.3e-05 | 0.000245 ± 6.5e-05 | 0.0011 ± 0.00017 | 0.0033 ± 0.00052 | 0.00403 ± 0.00047 |
| A53U U69G | 6.8e-05 ± 1.2e-05 | – | – | 6.15e-05 ± 1.2e-05 | 4.69e-05 ± 1.2e-05 | 8.29e-05 ± 9.4e-06 | 4.84e-05 ± 1.2e-05 |
| A48G C68A | 1.35e-05 ± 5e-06 | – | < 1e-05 | – | – | – | – |
| U45A C67A C68G | 1.46e-05 ± 7.2e-06 | – | – | – | – | – | – |
| G51U U56C | < 1e-05 | – | < 1e-05 | < 1e-05 | < 1e-05 | – | – |
| C50A C61U C70U | 3.88e-05 ± 1.2e-05 | – | – | – | – | – | – |
| A48U U49G | 1.55e-05 ± 3.7e-06 | – | < 1e-05 | – | – | – | – |
| U46C U54G | 0.00333 ± 0.00031 | 1370 ± 200 | 9.45e-05 ± 1.5e-05 | – | 0.000997 ± 0.00031 | 0.00284 ± 0.00085 | 0.00287 ± 0.0004 |
| A52G C70G | 6.89e-05 ± 3.6e-06 | 65.2 ± 26 | – | 5.53e-05 ± 1e-05 | 5.76e-05 ± 1.2e-05 | 6.23e-05 ± 7.9e-06 | 7.2e-05 ± 6.7e-06 |
| A48G U57C | 1.23e-05 ± 2.5e-06 | – | – | – | – | – | – |
| U45A U47A | 0.0227 ± 0.0082 | – | 0.00126 ± 0.0002 | 0.00413 ± 0.001 | 0.00902 ± 0.0014 | 0.0263 ± 0.0064 | – |
| G44U U46C | 1.46e-05 ± 1.4e-06 | 5110 ± 1200 | – | – | – | – | – |
| A52U A53G | 0.000144 ± 7.6e-06 | 2980 ± 430 | < 1e-05 | – | 3.11e-05 ± 1.3e-05 | 6.31e-05 ± 9.5e-06 | 0.000111 ± 1e-05 |
| U49G A53G | 0.00124 ± 0.00011 | 1440 ± 230 | 3.67e-05 ± 1.3e-05 | 0.000136 ± 2.5e-05 | 0.000361 ± 6.3e-05 | 0.000714 ± 0.00011 | 0.00116 ± 0.00015 |
| U46A C70U | 0.004 ± 0.0017 | – | 0.000188 ± 3.1e-05 | 0.000346 ± 5.5e-05 | 0.00135 ± 0.00019 | 0.00206 ± 0.00026 | 0.00626 ± 0.00087 |
| A52G U69C | 0.000343 ± 3.8e-05 | 425 ± 160 | – | – | 0.000215 ± 4.5e-05 | 0.000269 ± 5.7e-05 | 0.000381 ± 0.00011 |
| G44C U46A | 7.73e-05 ± 1.3e-05 | – | < 1e-05 | – | – | 0.000108 ± 2.5e-05 | 7.15e-05 ± 9.9e-06 |
| U47G G51C U57C C68U | 1.54e-05 ± 3.7e-06 | – | < 1e-05 | – | – | – | – |

| Variant | kcat (glucosamine-6-phosphate [1]) [s⁻¹] | KM (glucosamine-6-phosphate [2]) [µM] | self-cleavage kobs at 40 uM GlcN6P (glucosamine-6-phosphate [3]) [s⁻¹] | self-cleavage kobs at 160 uM GlcN6P (glucosamine-6-phosphate [4]) [s⁻¹] | self-cleavage kobs at 640 uM GlcN6P (glucosamine-6-phosphate [5]) [s⁻¹] | self-cleavage kobs at 2500 uM GlcN6P (glucosamine-6-phosphate [6]) [s⁻¹] | self-cleavage kobs at 10000 uM GlcN6P (glucosamine-6-phosphate [7]) [s⁻¹] |
| --- | --- | --- | --- | --- | --- | --- | --- |
| U46G U47A | 0.0123 ± 0.0053 | – | – | 0.00128 ± 0.00029 | 0.00231 ± 0.00046 | 0.00836 ± 0.0038 | 0.0106 ± 0.0026 |
| A53U A64C | 8.67e-05 ± 2.2e-05 | – | – | – | – | 9.3e-05 ± 1.6e-05 | 7.17e-05 ± 1.1e-05 |
| U49G C58A | 3.25e-05 ± 8.4e-06 | 6150 ± 2700 | < 1e-05 | – | – | – | – |
| G44C U56A | 7.55e-05 ± 7.5e-06 | 2860 ± 1100 | – | – | – | 3.9e-05 ± 1.4e-05 | 5.85e-05 ± 6.8e-06 |
| A52G C68G | 5.61e-05 ± 9.7e-06 | – | – | – | 6.55e-05 ± 1.4e-05 | 7.16e-05 ± 1.2e-05 | 4.28e-05 ± 8.7e-06 |
| A52G C68U | 0.000874 ± 0.00036 | – | 2.35e-05 ± 7.7e-06 | 9.18e-05 ± 1.1e-05 | 0.00015 ± 1.7e-05 | 0.000377 ± 4e-05 | 0.000858 ± 9.2e-05 |
| U46A A53U | 0.00158 ± 0.00035 | 1520 ± 540 | 5.78e-05 ± 1.1e-05 | 0.000161 ± 3.2e-05 | 0.000394 ± 5.6e-05 | 0.000952 ± 0.00012 | 0.00158 ± 0.00025 |
| U45A U54A | 0.115 ± 0.045 | 2630 ± 1200 | 0.00179 ± 0.00033 | 0.00611 ± 0.0017 | 0.0204 ± 0.0069 | 0.122 ± 0.049 | 0.0819 ± 0.035 |
| U49C U69G | 1.6e-05 ± 5e-06 | – | – | – | – | – | – |
| U45C A48C | < 1e-05 | – | – | < 1e-05 | – | – | – |
| A53C C58A | 5.04e-05 ± 1.4e-05 | – | – | – | – | 1.94e-05 ± 7.6e-06 | 3.91e-05 ± 8.6e-06 |
| A53C C58G | 1.56e-05 ± 5.2e-06 | – | – | – | – | – | – |
| A53C C58U | 3.83e-05 ± 9.3e-06 | – | < 1e-05 | < 1e-05 | – | – | – |
| U54G G66A | 0.0134 ± 0.0022 | 1380 ± 320 | 0.000427 ± 4.8e-05 | 0.00123 ± 0.00022 | 0.00385 ± 0.00097 | 0.00659 ± 0.0015 | 0.0132 ± 0.0016 |
| A52C U57C | 3.44e-05 ± 6.5e-06 | – | – | – | – | 4.64e-05 ± 1.6e-05 | 2.95e-05 ± 1e-05 |
| U45A A52G | 0.00326 ± 0.00073 | 2900 ± 900 | 5.17e-05 ± 1e-05 | 0.000155 ± 2.1e-05 | 0.000699 ± 8.5e-05 | 0.00135 ± 0.00014 | 0.00293 ± 0.00044 |
| A48G C67A | 7.17e-05 ± 2.1e-06 | – | – | < 1e-05 | – | – | 3.47e-05 ± 1.2e-05 |
| U47A G59A | 8.22e-05 ± 1.1e-05 | 3740 ± 1100 | < 1e-05 | – | – | 3.14e-05 ± 1.2e-05 | 6.07e-05 ± 1.8e-05 |

— the supplement of paper PMC7125110
